Source: IntAct's records for PubMed 18335997

B1: Hemojuvelin (Homo sapiens), Q6ZVN8 (parent)
chain: MGEPGQSPSPRSSHGSPPTLSTLTLLLLLCGHAHSQCKILRCNAEYVSSTLSLRGGGSSGALRGGGGGGRGGGVGSGGLCRALRSYALCTRRTARTCRGDLAFHSAVHGIEDLMIQHNCSRQGPTAPPPPRGPALPGAGSGLPAPDPCDYEGRFSRLHGRPPGFLHCASFGDPHVRSFHHHFHTCRVQGAWPLLDNDFLFVQATSSPMALGANATATRKLTIIFKNMQECIDQKVYQAEVDNLPVAFEDGSINGGDRPGGSSLSIQTANPGNHVEIQAAYIGTTIIIRQTAGQLSFSIKVAEDVAMAFSAEQDLQLCVGGCPPSQRLSRSERNRRGAITIDTARRLCKEGLPVEDAYFHSCVFDVLISGDPNFTVAAQAALEDARAFLPDLEKLHLFPSDAGVPLSSATLLAPLLSGLFVLWLCIQ
partner: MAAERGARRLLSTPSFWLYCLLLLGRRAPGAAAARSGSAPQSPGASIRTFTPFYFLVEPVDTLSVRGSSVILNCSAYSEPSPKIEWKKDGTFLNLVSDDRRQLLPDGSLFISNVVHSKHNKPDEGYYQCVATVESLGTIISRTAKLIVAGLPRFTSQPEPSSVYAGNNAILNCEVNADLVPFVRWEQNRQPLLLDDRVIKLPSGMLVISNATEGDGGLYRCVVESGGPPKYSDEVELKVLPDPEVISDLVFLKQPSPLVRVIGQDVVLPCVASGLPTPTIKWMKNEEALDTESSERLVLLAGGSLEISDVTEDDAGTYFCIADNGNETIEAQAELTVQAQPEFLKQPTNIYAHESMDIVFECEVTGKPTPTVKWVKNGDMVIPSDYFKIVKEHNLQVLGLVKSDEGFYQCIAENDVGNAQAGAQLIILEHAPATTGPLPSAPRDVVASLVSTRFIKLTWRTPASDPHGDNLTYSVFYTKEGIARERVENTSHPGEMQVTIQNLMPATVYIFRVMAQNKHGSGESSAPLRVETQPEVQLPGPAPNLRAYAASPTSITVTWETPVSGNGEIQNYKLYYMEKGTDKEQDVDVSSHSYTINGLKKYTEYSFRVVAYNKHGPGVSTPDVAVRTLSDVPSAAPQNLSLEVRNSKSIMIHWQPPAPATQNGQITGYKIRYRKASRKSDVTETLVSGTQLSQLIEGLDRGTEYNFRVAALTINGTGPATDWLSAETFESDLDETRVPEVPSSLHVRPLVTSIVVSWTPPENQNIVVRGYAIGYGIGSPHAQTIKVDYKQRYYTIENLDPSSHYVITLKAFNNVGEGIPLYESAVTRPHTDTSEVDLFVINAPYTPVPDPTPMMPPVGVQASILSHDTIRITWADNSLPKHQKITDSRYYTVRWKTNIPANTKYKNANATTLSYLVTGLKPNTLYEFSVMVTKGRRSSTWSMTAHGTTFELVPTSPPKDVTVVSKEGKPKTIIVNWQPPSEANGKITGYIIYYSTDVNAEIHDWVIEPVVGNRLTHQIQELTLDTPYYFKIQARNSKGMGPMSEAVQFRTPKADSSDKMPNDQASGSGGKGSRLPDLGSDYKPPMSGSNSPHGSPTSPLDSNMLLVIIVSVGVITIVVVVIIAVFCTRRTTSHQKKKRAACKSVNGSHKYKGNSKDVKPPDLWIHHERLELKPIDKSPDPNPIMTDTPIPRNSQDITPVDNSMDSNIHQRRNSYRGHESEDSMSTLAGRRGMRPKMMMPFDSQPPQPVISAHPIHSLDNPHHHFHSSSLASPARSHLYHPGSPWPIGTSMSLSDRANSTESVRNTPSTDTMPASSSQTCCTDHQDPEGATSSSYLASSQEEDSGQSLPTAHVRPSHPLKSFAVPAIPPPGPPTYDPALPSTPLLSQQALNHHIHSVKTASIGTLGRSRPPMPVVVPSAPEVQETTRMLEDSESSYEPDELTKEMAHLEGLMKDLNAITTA

Variants of: B1
Conditions: with neo1_human NEO1, Q92859

Variant	effect of a mutation on the interaction
MGEPGQSPSPRSSHGSPPTLSTLTLLLLLCGHAHSQCKILRCNAEYVSSTLSLRGGGSSGALRGGGGGGRGGGVGSGGLCRALRSYALCTRRTARTCRGDLAFHSAVHGIEDLMIQHNCSRQGPTAPPPPRGPALPGAGSGLPAPDPCDYEGRFSRLHGRPPGFLHCASFGAPHVRSFHHHFHTCRVQGAWPLLDNDFLFVQATSSPMALGANATATRKLTIIFKNMQECIDQKVYQAEVDNLPVAFEDGSINGGDRPGGSSLSIQTANPGNHVEIQAAYIGTTIIIRQTAGQLSFSIKVAEDVAMAFSAEQDLQLCVGGCPPSQRLSRSERNRRGAITIDTARRLCKEGLPVEDAYFHSCVFDVLISGDPNFTVAAQAALEDARAFLPDLEKLHLFPSDAGVPLSSATLLAPLLSGLFVLWLCIQ [D172A]	decreasing interaction strength
